Results reported in patent US20170015742A1 (published 2017).
Several values for one entry are separate records, joined by “and”; a condition that tells them apart may be missing. Identical values can stand only once. One block for each binder: values may come before it.

Experiments:
Human VEGF-A 165 [1] = molecular target: T1, Human VEGF-A 165 (human, UniProt P15692 207-395); experiment: cell-based or functional assay
human VEGF111 = molecular target: T2, human VEGF111 (human, UniProt P15692-10 27-137); experiment: cell-based or functional assay
T2 sequence (looked up): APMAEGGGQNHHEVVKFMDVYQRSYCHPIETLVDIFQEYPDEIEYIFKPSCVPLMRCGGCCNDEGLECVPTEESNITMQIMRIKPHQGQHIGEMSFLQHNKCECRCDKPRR

Human VEGF-A 165 [2] = molecular target: T1, Human VEGF-A 165; experiment: SPR (Biacore), antibody captured by anti-human Fc, hVEGF165 as analyte
Protocol: (§1) For example, approximately 9000 RU of goat anti-human Fc specific polyclonal antibody (Thermo Fisher Scientific Inc., Rockford, Ill.) diluted in 10 mM sodium acetate (pH 4.5) is directly immobilized across a CM5 research grade biosensor chip using a standard amine coupling kit according to manufacturer's instructions and procedures at 25 μg/ml. Unreacted moieties on the biosensor surface were blocked with ethanolamine. For kinetic analysis, rate equations derived from the 1:1 Langmuir binding model were fitted simultaneously to multiple antigen injections (using global fit analysis) with the use of Scrubber 2 (BioLogic Software), Biacore Biaevaluation 4.0.1 software or Biacore T100 Evaluation software. Purified antibodies or DVD-Ig molecules were diluted in running buffer for capture across goat anti-human Fc reaction surfaces. Antibodies or DVD-Ig molecules to be captured as a ligand (1 μg/ml) were injected over reaction matrices at a flow rate of 10 μl/minute. During the assay, all measurements were referenced against the capture surface alone (i.e., with no captured antibody or DVD-Ig molecule). […] The equilibrium dissociation constant KD (M) of the reaction between antibodies and the target antigen was then calculated from the kinetic rate constants by the following formula: KD=Koff/Kₒₙ. Binding was recorded as a function of time and kinetic rate constants were calculated.

Human VEGF-A 165 [3] = molecular target: T1, Human VEGF-A 165; experiment: receptor competition ELISA: antibody titrated against biotinylated hVEGF165, binding to coated hVEGF-R2-Fc read
Protocol: To identify molecules that could block the binding of hVEGF₁₆₅ to the hVEGF-R2 (KDR/Flk-1) receptor, a competition ELISA was performed. […] Plates were then washed four times with wash buffer (TBS, 0.05% Tween-20) and blocked with Superblock blocking buffer (Thermo Scientific, cat#37535). […] The pre-incubated sample/hVEGF₁₆₅ complex was added to the coated plate at 50 μL in duplicate and incubated for 30 minutes at 25° C. with shaking. Following incubation, plates were washed four times with wash buffer. Streptavidin-polyHRP-40 (Fitzgerald cal#65r-s104phrp) was diluted in assay diluent (10% Superblock containing 0.05% surfactamps) and added to plates (50 μL) for 45 minutes at 25° C. with shaking. Plates were washed four times with wash buffer and developed with the addition of Enhanced K-blue TMB substrate (Neogen cat#308177). The reaction was stopped with 2N sulfuric acid (VWR, cat# BDH3500-1) and the absorbance was read at 450 nm-570 nm. A decrease in observed optical density indicates the test molecule is blocking the hVEGF₁₆₅ binding to the hVEGF-R2-Fc. Data was analyzed using Softmax Pro 4.8 software and IC₅₀ values calculated using a sigmoidal dose response (variable slope) fit in GraphPad Prism 5.

[4] = molecular target: T3, mouse PDGF-B (PR-1577160) (mouse, UniProt P31240 82-190); experiment: SPR (Biacore), mAb captured by anti-human Fc, antigen injected
T3 construct: Recombinant; also called mouse PDGF-BB; mPDGF-BB
T3 sequence (P31240 82-190 limits assumed): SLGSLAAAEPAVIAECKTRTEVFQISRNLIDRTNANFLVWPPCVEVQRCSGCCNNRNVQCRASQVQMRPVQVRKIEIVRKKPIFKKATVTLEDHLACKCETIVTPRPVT
Protocol: as §1, with “Unreacted” for “For example, approximately 9000 RU of goat anti-human Fc specific polyclonal antibody (Thermo Fisher Scientific Inc., Rockford, Ill.) diluted in 10 mM sodium acetate (pH 4.5) is directly immobilized across a CM5 research grade biosensor chip using a standard amine coupling kit according to manufacturer's instructions and procedures at 25 μg/ml. Unreacted”, “calculated. In this assay, on-rates as fast as 10⁶M⁻¹s⁻¹ and off-rates as slow as 10⁻⁶ s⁻¹ could be measured.” for “calculated.”

[5] = molecular target: T4, human PDGF-B (PR-1373790) (human, UniProt P01127 82-190); experiment: as above
T4 construct: Soluble recombinant PDGF-BB homodimer; also called human PDGF-BB; hPDGF-BB
Protocol: as §1, with “Unreacted” for “For example, approximately 9000 RU of goat anti-human Fc specific polyclonal antibody (Thermo Fisher Scientific Inc., Rockford, Ill.) diluted in 10 mM sodium acetate (pH 4.5) is directly immobilized across a CM5 research grade biosensor chip using a standard amine coupling kit according to manufacturer's instructions and procedures at 25 μg/ml. Unreacted”, “calculated. In this assay, on-rates as fast as 10⁶M⁻¹s⁻¹ and off-rates as slow as 10⁻⁶ s⁻¹ could be measured.” for “calculated.”

cyno PDGF-B (PR-1575400) = molecular target: T5, cyno PDGF-B (PR-1575400) (cynomolgus monkey, UniProt P01127 82-190 (human entry), limits assumed); experiment: as above
T5 construct: Recombinant; also called cynomolgus monkey PDGF-BB; cynoPDGF-BB
T5 chain: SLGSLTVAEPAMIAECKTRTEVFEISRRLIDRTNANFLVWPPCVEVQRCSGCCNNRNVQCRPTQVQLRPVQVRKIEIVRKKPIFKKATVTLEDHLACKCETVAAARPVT
Protocol: as §1, with “Unreacted” for “For example, approximately 9000 RU of goat anti-human Fc specific polyclonal antibody (Thermo Fisher Scientific Inc., Rockford, Ill.) diluted in 10 mM sodium acetate (pH 4.5) is directly immobilized across a CM5 research grade biosensor chip using a standard amine coupling kit according to manufacturer's instructions and procedures at 25 μg/ml. Unreacted”, “calculated. In this assay, on-rates as fast as 10⁶M⁻¹s⁻¹ and off-rates as slow as 10⁻⁶ s⁻¹ could be measured.” for “calculated.”

rat PDGF-B (PR-1645048) = molecular target: T6, rat PDGF-B (PR-1645048) (rat, UniProt Q05028 74-182); experiment: SPR (Biacore), antibody captured by anti-human Fc, antigen injected
T6 construct: Lot 2235300; also called rat PDGF-BB; ratPDGF-BB
T6 sequence (Q05028 74-182 limits assumed): as the sequence (P31240 82-190 limits assumed) above, with I83V, I102V counted along it
Protocol: as §1, with “Unreacted” for “For example, approximately 9000 RU of goat anti-human Fc specific polyclonal antibody (Thermo Fisher Scientific Inc., Rockford, Ill.) diluted in 10 mM sodium acetate (pH 4.5) is directly immobilized across a CM5 research grade biosensor chip using a standard amine coupling kit according to manufacturer's instructions and procedures at 25 μg/ml. Unreacted”, “calculated. In this assay, on-rates as fast as 10⁶M⁻¹s⁻¹ and off-rates as slow as 10⁻⁶ s⁻¹ could be measured.” for “calculated.”

B3: CL-33675, PR-1593725 (antibody, V domains shown)
VH: EVTLRESGPALVKPTQTLTLTCTFSGFSLSTYGMGVGWIRQPPGKALEWLANIWWDDDKYYNPSLKNRLTISKDTSKNQVVLTMTNMDPVDTATYYCARIESSGPKYSFDYWGQGTMVTVSS
VL: EIVLTQSPGTLSLSPGERATLSCRASSGSIWYSFVSWYQQKPGQAPRLLIYADDQRASGIPDRFSGSGSGTDFTLTISRLEPEDFAVYYCQSYGINIDVVFGGGTKVEIK
notes: also called CL-33675-IgG
Kd [4]: ≤ 0.58 pM
koff [4]: 5.8e-06 s⁻¹
kon [4]: ≥ 1e+07 M⁻¹ s⁻¹
Kd [5]: ≤ 0.58 pM
koff [5]: 5.8e-06 s⁻¹
kon [5]: ≥ 1e+07 M⁻¹ s⁻¹
Kd (cyno PDGF-B (PR-1575400)): ≤ 1.3 pM
koff (cyno PDGF-B (PR-1575400)): 1.3e-05 s⁻¹
kon (cyno PDGF-B (PR-1575400)): ≥ 1e+07 M⁻¹ s⁻¹

B4: CL-33675 (antibody, V domains shown)
VH: EVTLRESGPALVKPTQTLTLTCTFSGFSLSTYGMGVGWIRQPPGKALEWLANIWWDDDKYYNPSLKNRLTISKDTSKNQVVLTMTNMDPVDTATYYCARIESSGPKYSFDYWGQGTMVTVSS
VL: EIVLTQSPGTLSLSPGERATLSCRASSGSIWYSFVSWYQQKPGQAPRLLIYADDQRASGIPDRFSGSGSGTDFTLTISRLEPEDFAVYYCQSYGINIDVVFGGGTKVEIK
notes: Converted to IgG; also called CL-33675-IgG; PR-1593725
Kd (rat PDGF-B (PR-1645048)): ≤ 0.58 pM
koff (rat PDGF-B (PR-1645048)): 5.8e-06 s⁻¹
kon (rat PDGF-B (PR-1645048)): ≥ 1e+07 M⁻¹ s⁻¹

Next, values leading:

huVEGF-A165 Neutralization Potency in HMVEC-d cells (Human VEGF-A 165 [1]): 31 pM
Phospho-Tyr1054/huVEGF-A111 Neuterlization (human VEGF111): 0.435 nM
Kd (Human VEGF-A 165 [2]): 8.8 pM
kon (Human VEGF-A 165 [2]): 4.9e+06 M⁻¹ s⁻¹
IC50 (Human VEGF-A 165 [3]): 148 pM
B1: chBEW-6C2 (antibody, human IgG1, kappa, L234A L235A, V domains shown)
VH: EVQLVESGGGLVQPGSSLKLSCAASGFTFSYYGMHWIRQAPKKGLEWMALIYYDSSKMYYADSVKGRFTISRDNSKNTLYLEMNSLRSEDTAMYYCAAGGTAPVYWGQGVMVTVSS
VL: NIQLTQSPSLLSASVGDRVTLSCKGSQNIANYLAWYQQKLGEAPKLLIYNTDSLQTGIPSRFSGSGSGTDYTLTISSLQPEDVATYFCYQSNNGYTFGAGTKLELRR

huVEGF-A165 Neutralization Potency in HMVEC-d cells (Human VEGF-A 165 [1]): 195 pM
Phospho-Tyr1054/huVEGF-A111 Neuterlization (human VEGF111): 0.575 nM
Kd (Human VEGF-A 165 [2]): 1.9 pM and 3.8 pM
kon (Human VEGF-A 165 [2]): 1.7e+07 M⁻¹ s⁻¹ and 1.2e+07 M⁻¹ s⁻¹
IC50 (Human VEGF-A 165 [3]): 157 pM
B2: chBDB-4G8 (antibody, human IgG1, kappa, L234A L235A)
heavy: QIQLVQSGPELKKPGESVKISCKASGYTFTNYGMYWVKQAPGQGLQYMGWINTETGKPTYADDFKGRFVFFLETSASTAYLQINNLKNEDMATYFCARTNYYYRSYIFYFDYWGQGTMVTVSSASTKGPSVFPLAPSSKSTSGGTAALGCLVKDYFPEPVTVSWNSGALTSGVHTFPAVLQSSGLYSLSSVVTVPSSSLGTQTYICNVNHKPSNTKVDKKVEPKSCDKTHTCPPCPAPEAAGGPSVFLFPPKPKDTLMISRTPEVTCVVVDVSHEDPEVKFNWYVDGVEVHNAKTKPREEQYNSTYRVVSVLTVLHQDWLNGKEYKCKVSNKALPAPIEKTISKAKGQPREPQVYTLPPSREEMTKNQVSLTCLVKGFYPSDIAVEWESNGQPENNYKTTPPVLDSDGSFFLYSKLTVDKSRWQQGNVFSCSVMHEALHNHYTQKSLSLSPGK
light: DTVLTQSPALAVSPGERVSISCRASESVSTHMHWYQQKPGQQPKLLIYGASNLESGVPARFSGSGSGTDFTLTIDPVEADDTATYFCQQSWNDPFTFGAVTKLELKRTVAAPSVFIFPPSDEQLKSGTASVVCLLNNFYPREAKVQWKVDNALQSGNSQESVTEQDSKDSTYSLSSTLTLSKADYEKHKVYACEVTHQGLSSPVTKSFNRGEC
